Measurements reported in patent US5780025A, “Compositions and methods for the synthesis and assay of enkephalinase” (Genentech, Inc., priority 1993, dated 1998).

Legend:
Assay in all cases: Fluorometric determination of kinetic parameters for hydrolysis of substrates by enkephalinase
Type in all cases: biochemical, rat
[1] = substrate: CC(=O)NCC(=O)N[C@@H](Cc1c[nH]c2ccccc12)C(=O)NCC(=O)O; settings: other: peptides I and II: HPLC analysis of 1 hr incubations of 1 mM peptide with 200 ng (I) or 50 ng (II) enzyme; pH 7.4; 37.0 °C
Method: (§1) Fluorescence measurements were made using a Perkin Elmer, model 650-10S spectrofluorometer, equipped with a temperature controlled cell-holder, maintained at 37° C. Two procedures were used. The first combined a 50 μl solution of dansylated peptide with 50 μl of purified rat kidney enkephalinase in 50 mM, pH 7.4 HEPES buffer, containing 0.1% Tween 20, yielding a substrate concentration from 1 μM to 1 mM. After 1 hour at 37° C., 500 μl of 0.1M EDTA were added to the tubes. The 600 μl mixture was transferred into a quartz cuvette, and fluorescence measured. For dansyl-Gly-Trp-Gly, the excitation wavelength was set at 280 nm and emission at 360 nm. For the two tyrosine containing peptides, the excitation wavelength was at 277 nm and emission at 315 nm. Both slits were set at 2 nm. Known amounts of Trp-Gly and Tyr-Gly, diluted in the same mixture (100 μl HEPES, Tween 20, 500 μl EDTA), were run in parallel as standards. The fluorescence in the incubation media could thus be related to the amounts of hydrolyzed substrates. The second procedure permitted continuous monitoring of the hydrolysis of the dansylated peptides. A 500 μl solution of substrate at appropriate concentration, in 50 mM, pH 7.4 HEPES buffer containing 0.1% Tween 20 was pipetted in a quartz cuvette, and allowed to equilibrate in the cell holder of the fluorimeter at 37° C. Ten μl of purified rat kidney enkephalinase was added and the increase in tryptophan or tyrosine fluorescence was continuously monitored (excitation=280 nm, emission=360 nm for tryptophan, excitation 277, emission 315 for tyrosine). To minimize oxidation of tryptophan the intensity of excitation was reduced by adjusting the fluorimeter shutter so that a 10^-4 M solution of tryptophan in water gave a fluorescence of 20.0 with excitation set at 280 nm, emission at 360 nm, both slits at 2 nm, and sensitivity at 0.1. Under these conditions, tryptophan fluorescence was stable for over 2 hr.
(§2) The kinetic parameters for the hydrolysis of dansyl-Gly-Trp-Gly, dansyl-Gly-Tyr-Gly and Dansyl-Gly-Tyr-Gly-NH2 by purified rat kidney enkephalinase were measured by incubating increasing concentrations of the substrates with the enzyme and stopping the reaction by the addition of EDTA before fluorescence measurements were taken (Table 4).
(§3) Km and kcat values for substrates III, IV and V were obtained by measuring the increase in tryptophan or tyrosine fluorescence after 1 hr. incubations of increasing concentrations of substrates (from 1 μM to 1 mM) with 1 ng purified enzyme at 37° C. The kcat values for these substrates and peptides I and II were also obtained by HPLC analysis of 1 hr. incubations of 1 mM peptides with 200 ng (substrate I), 50 ng (substrates II and V), or 10 ng (substrates III and IV) enzyme. The kcat values obtained by both methods for substrates III, IV and V were in close agreement.

[2] = substrate: CN(C)c1cccc2c(S(=O)(=O)NCC(=O)N[C@@H](Cc3c[nH]c4ccccc34)C(=O)NCC(=O)O)cccc12; settings: other: fluorescence after 1 hr incubation, 1 μM to 1 mM substrate, 1 ng purified enzyme, 37° C., pH 7.4
Method: as §1, §2, §3

[3] = substrate: NCC(=O)N[C@@H](Cc1c[nH]c2ccccc12)C(=O)NCC(=O)O; settings: other: peptides I and II: HPLC analysis of 1 hr incubations of 1 mM peptide with 200 ng (I) or 50 ng (II) enzyme; pH 7.4; 37.0 °C
Method: as §1, §2, §3

[4] = substrate: CN(C)c1cccc2c(S(=O)(=O)NCC(=O)N[C@@H](Cc3ccc(O)cc3)C(=O)NCC(=O)O)cccc12; settings: other: fluorescence after 1 hr incubation, 1 μM to 1 mM substrate, 1 ng purified enzyme, 37° C., pH 7.4
Method: as §1, §2, §3

[5] = substrate: CN(C)c1cccc2c(S(=O)(=O)NCC(=O)N[C@@H](Cc3ccc(O)cc3)C(=O)NCC(N)=O)cccc12; settings: other: fluorescence after 1 hr incubation, 1 μM to 1 mM substrate, 1 ng purified enzyme, 37° C., pH 7.4
Method: as §1, §2, §3

B1: purified rat kidney enkephalinase (Rattus norvegicus) (protein)
chain: MGRSESQMDITDINAPKPKKKQRWTPLEISLSVLVLLLTIIAVTMIALYATYDDGICKSSDCIKSAARLIQNMDASAEPCTDFFKYACGGWLKRNVIPETSSRYSNFDILRDELEVILKDVLQEPKTEDIVAVQKAKTLYRSCINESAIDSRGGQPLLTLLPDIYGWPVASQNWEQTYGTSWTAEKSIAQLNSKYGKKVLINFFVGTDDKNSTQHIIHFDQPRLGLPSRDYYECTGIYKEACTAYVDFMISVARLIRQEQRLPIDENQLSLEMNKVMELEKEIANATTKPEDRNDPMLLYNKMTLAKLQNNFSLEINGKPFSWSNFTNEIMSTVNINIQNEEEVVVYAPEYLTKLKPILTKYSPRDLQNLMSWRFIMDLVSSLSRNYKESRNAFRKALYGTTSETATWRRCANYVNGNMENAVGRLYVEAAFAGESKHVVEDLIAQIREVFIQTLDDLTWMDAETKKKAEEKALAIKERIGYPDDIISNENKLNNEYLELNYKEEEYFENIIQNLKFSQSKQLKKLREKVDKDEWISGAAVVNAFYSSGRNQIVFPAGILQPPFFSARQSNSLNYGGIGMVIGHEITHGFDDNGRNFNKDGDLVDWWTQQSANNFKDQSQCMVYQYGNFTWDLAGGQHLNGINTLGENIADNGGIGQAYRAYQNYVKKNGEEKLLPGLDLNHKQLFFLNFAQVWCGTYRPEYAVNSIKTDVHSPGNFRIIGTLQNSAEFADAFHCRKNSYMNPERKCRVW
notes: Rat kidney enkephalinase was purified to apparent homogeneity; from tissue; host or cells: rat kidney (male rats, membrane fraction, Triton X-100 solubilised)
- kcat [1]: 218 min⁻¹
- Km [2]: 30 µM
- kcat [2]: 902 min⁻¹
- kcat/Km [2]: 30 µM⁻¹ min⁻¹
- kcat [3]: 53 min⁻¹
- Km [4]: 41 µM
- kcat [4]: 1143 min⁻¹
- kcat/Km [4]: 28 µM⁻¹ min⁻¹
- Km [5]: 90 µM
- kcat [5]: 248 min⁻¹
- kcat/Km [5]: 3 µM⁻¹ min⁻¹
